{"source": "the nanobody polyreactivity screen of Harvey et al. (2022)", "assay": "yeast display, Sf9 membrane polyspecificity reagent, FACS + sequencing; frameworks hold sequencing errors", "outline": "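A nanobody's polyreactivity label depends on the gate it was sorted from. Yeast display cells were stained with 10% biotinylated, detergent-solubilized Sf9 membrane reagent for 1 hour at 4 °C, enriched on streptavidin microbeads and sorted by FACS. The low and high (top ~1%) gates were set on anti-HA fluorescence for expression and streptavidin fluorescence for reagent binding.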", "data": [{"sequence": "QVQLVESGGGLVQAGGSLRLSCAASGYIFGSYVMGWYRQAPGKERELVAAISRRGGSTYYADSVKGRFTISRDNAKNTVNLQMNSLKPEYTAVYYFSADYGQYAKYDYWGQGTQVTVSS", "values": [{"measurement": "polyreactivity (PSR sort gate)", "result": "high polyreactivity"}]}, {"sequence": "QVQLVESGGGLVRAGGSLRLSCAASGRNKDNVMGWYRQAPGKERELVAAITRSAGRTYYADSVKGRFTISRDNAKNTVYLQMNSLIPEDTAVYYFATADAHYSAAGEDYWGQGTQVTVSS", "values": [{"measurement": "polyreactivity (PSR sort gate)", "result": "low polyreactivity"}]}, {"sequence": "QVQLVESGGGLVQAGGSLRLSCAASGRIFGIYAMGWFRLAPWKERELVARITGGGSTNYADSLKGRFTISRDNAKNTVYFQMTSLKPEDTAVYYCNTKKLPYAEGYWGQGTQVTVSS", "values": [{"measurement": "polyreactivity (PSR sort gate)", "result": "low polyreactivity"}]}, {"sequence": "QVQLVESVGGLVQAGGSLRLSCAASGFIFNPYAMGWYRQAPGKERELVAAISWRGASTYYADSVKGRFTISRDNAKNTVYLQMNSLNPEDTAVYYCAADLAYSSTASDYEYWGQGTQVTVSS", "values": [{"measurement": "polyreactivity (PSR sort gate)", "result": "low polyreactivity"}]}, {"sequence": "QVQLVESGGGLVQAGGSLRLSCAASGSTFYFYAMGWYRQAPGKERELVAAISQSGGTTYYADSVKGRFTISRDNAKNTVFLQMNSLKPEDTAVYYCNADTDTWYTEYDYWGQGTQVTVSS", "values": [{"measurement": "polyreactivity (PSR sort gate)", "result": "low polyreactivity"}]}, {"sequence": "QVQLVESGGGLVQAGGSLRLSCAASGGIFYRNAMGWYRQAPGKERELVAAITQSGGRTYYADSVKGRFTISRDNAKNTVYLQMNSLKPEDTAVYYCAARSRKLYGHYRGAYDYWGQGTQVTVSS", "values": [{"measurement": "polyreactivity (PSR sort gate)", "result": "high polyreactivity"}]}, {"sequence": "QVQLVESGGGLVQAGGSLRLSCAASGGTFLGYAMGWYRQAPGKDRELVAAIAASGGNTYYADSVKGRFTISRDNAKNTVYLQMNSLKPEATAVYYGAARQYRSVLKYDYWGQGTQVTVSS", "values": [{"measurement": "polyreactivity (PSR sort gate)", "result": "high polyreactivity"}]}, {"sequence": "QFQLVESGGGLVQAGGSLRLSCAASGSTFVPNTMGWYRQAPGIERELVAAITYSGGSTYYADSVKGRFTISRDNAKNTVYLQMHSLKPEDTAVYYCAAEGTTWYYDMDYWGQGTQVTVSS", "values": [{"measurement": "polyreactivity (PSR sort gate)", "result": "low polyreactivity"}]}, {"sequence": "QVQLVESGGGLVQAGGSLRLSCASSGRIFYTYAMGWYRQAPGKERELVAAIRYSGGSTYYADSVKGRFTISRDNAMNTVYLQINSLKPEDTAVYYCAATVYTKQFDYWGQGTQVTVSS", "values": [{"measurement": "polyreactivity (PSR sort gate)", "result": "high polyreactivity"}]}, {"sequence": "QVQLVESGGGLVQAGGSLRLSCAASGAILYGNAMGWYRQAPGKERELVAAISYSGGRTYYADSVKGRFTISRDNAKYTVYLQMNSLKPEDTAVYYCASLHSGRVQNFDYWGQGTQVTVSS", "values": [{"measurement": "polyreactivity (PSR sort gate)", "result": "high polyreactivity"}]}, {"sequence": "QVQLVESVGGLVQAGGSLRLSCAASGSIFTENAMGWYRQAPGKERELVATITITGSTNYADSVKGRFTISRDNAKNTFYLQMNSLKPEDTEVYYCNADLYIAFSASAYDYWGQGTQVTVSS", "values": [{"measurement": "polyreactivity (PSR sort gate)", "result": "low polyreactivity"}]}, {"sequence": "QVQLQGSGGGLVQAGGSLRLSCAASGYNFQNVPMGWNRQAPGKERELVAGIDNGTSTNYADSVNGRFTISRDNAKNTVYLQMNSLKPEDTAVYYCAAAGQADDTLGYWGQGTQVTVSS", "values": [{"measurement": "polyreactivity (PSR sort gate)", "result": "low polyreactivity"}]}, {"sequence": "QVQLVESGGGLVQAGGSLRLSCAASGFDGYAMGWYRQAPGKERELVAASSWSGSRTYYADSVKGRFTISRDNAKNTVYLQMNSLKPEDTAVYYCNAVLRYSIYPSYSFSYVGYYYWGHGTQVTVSS", "values": [{"measurement": "polyreactivity (PSR sort gate)", "result": "high polyreactivity"}]}, {"sequence": "QVQLVESGGGLVQAGGSLRLSCAPSGSIFPYAMGWYRQAPGKERELVAAITRSGASTYYADSVKGRFTISRDNAKNTVYLQLNSLKPEDTAVYYCAAYALRGVRYPYRVDFYYWGQGTQVTVSS", "values": [{"measurement": "polyreactivity (PSR sort gate)", "result": "high polyreactivity"}]}, {"sequence": "QVQLVESGGGLVQAGGSLRVICAASGSTFSGNAMGWSRKAPGKERELVAAISRRGGRTYYADSVKGRFTISRDNAKNTVFLQMNRLKPEDTAVYYCAATSGVYRVGIIKYDYWGQGTQVTVSS", "values": [{"measurement": "polyreactivity (PSR sort gate)", "result": "high polyreactivity"}]}, {"sequence": "QVQLVESGGGLVQAGGSLRLSCAASGNIFGSYAMGWYRQAPGKERELVAAIRTSGGSTYYADSVKGRFTISRDNAKNTVYLQMNSLKPEDTAVYYCATRSRTTKIVRWPGMYYWGQGTQVTVSS", "values": [{"measurement": "polyreactivity (PSR sort gate)", "result": "high polyreactivity"}]}, {"sequence": "QVQLVESGGGLVQAGGSLRLSCAASGFIFAYNAMGWYRQAPGKERELVAAISWSGGSTYYADYVKGRFTISRDNAKNTVYLQMNSLKPEDTAVYYCNAVSYYGARYDYWGQGTQVTVSS", "values": [{"measurement": "polyreactivity (PSR sort gate)", "result": "high polyreactivity"}]}]}
